Columns and labels:
[1] = target: T1, DCL1-AB (both dsRBDs) (Arabidopsis thaliana) (UniProt Q9SP32); assay: fluorescence anisotropy; conditions: FA: 10 mM phosphate pH 7.0, 50 nM labeled nucleic acid, temperature not stated; CD: 10 mM phosphate pH 7; NMR complex: 20 mM phosphate pH 7.0, 5 mM TCEP
T1 sequence: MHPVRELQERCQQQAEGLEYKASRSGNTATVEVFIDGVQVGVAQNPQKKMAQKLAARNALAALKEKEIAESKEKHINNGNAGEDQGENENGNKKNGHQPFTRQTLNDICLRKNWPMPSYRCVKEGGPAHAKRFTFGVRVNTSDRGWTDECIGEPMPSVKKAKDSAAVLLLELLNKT

[2] = target: T2, DCL1-A (first dsRBD) (Arabidopsis thaliana) (UniProt Q9SP32); assay: fluorescence anisotropy; conditions: FA: 10 mM phosphate pH 7.0, 50 nM labeled nucleic acid, temperature not stated; CD: 10 mM phosphate pH 7; NMR complex: 20 mM phosphate pH 7.0, 5 mM TCEP
T2 sequence: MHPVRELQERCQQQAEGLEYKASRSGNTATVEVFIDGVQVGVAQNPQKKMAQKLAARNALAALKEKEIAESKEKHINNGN

dsDNA
Kd [1]: 0.68 µM
Kd [2]: 0.86 µM

miR172a stem-loop (miRNA/miRNA* region)
Kd [1]: 0.067 µM
Kd [2]: 0.723 µM
